Test results reported in patent US20180265890.

Test system: T1, PiggyBac transposase with c-myc NLS
T1 sequence: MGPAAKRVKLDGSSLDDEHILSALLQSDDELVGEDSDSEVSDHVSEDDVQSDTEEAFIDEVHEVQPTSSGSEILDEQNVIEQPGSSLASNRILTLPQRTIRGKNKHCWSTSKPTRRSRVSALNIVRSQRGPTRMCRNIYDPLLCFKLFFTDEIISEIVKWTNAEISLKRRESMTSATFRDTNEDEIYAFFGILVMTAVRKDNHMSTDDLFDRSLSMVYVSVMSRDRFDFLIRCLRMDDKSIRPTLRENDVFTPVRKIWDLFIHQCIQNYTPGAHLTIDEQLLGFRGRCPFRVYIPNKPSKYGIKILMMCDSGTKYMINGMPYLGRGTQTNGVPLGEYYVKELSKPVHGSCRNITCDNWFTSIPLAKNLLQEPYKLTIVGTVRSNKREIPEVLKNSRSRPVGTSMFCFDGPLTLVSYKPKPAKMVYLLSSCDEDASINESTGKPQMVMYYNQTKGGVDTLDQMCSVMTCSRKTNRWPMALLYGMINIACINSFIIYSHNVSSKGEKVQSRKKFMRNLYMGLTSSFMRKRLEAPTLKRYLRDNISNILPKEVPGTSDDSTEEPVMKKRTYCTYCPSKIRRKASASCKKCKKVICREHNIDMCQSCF
Assay: cell_activity
Details: pNB328-EGFP in Jurkat cells after 3 passages; both terminal repeats present together; K562 40.54%, primary T 56.9%, mouse ES 73.12%

With “GCATGCGTCAATTTTACGCAGACTATCTTTCTAGGGTTAA (double strand) [PiggyBac 3'-terminal repeat]” the activity (% EGFP positive cells) was 36.4.
Sequence “TTAACCCTAGAAAGATAATCATATTGTGACGTACGTTAAAGATAATCATGCGTAAAATTGACGCATG (double strand) [PiggyBac 5'-terminal repeat]” has an activity (% EGFP positive cells) of 36.4.
